Reference: CN111303285A (BAILISIKANG BIOLOGICAL PHARMACEUTICAL HANGZHOU CO LTD, dated 2020)

Tests used:
[1] = biological target: T1, OX40 expressed on cells (OX40-293F细胞; 19B3 HEK293 NF-κB报告细胞系) (UniProt P43489 29-277); assay: cell-based or functional assay
T1 sequence (looked up): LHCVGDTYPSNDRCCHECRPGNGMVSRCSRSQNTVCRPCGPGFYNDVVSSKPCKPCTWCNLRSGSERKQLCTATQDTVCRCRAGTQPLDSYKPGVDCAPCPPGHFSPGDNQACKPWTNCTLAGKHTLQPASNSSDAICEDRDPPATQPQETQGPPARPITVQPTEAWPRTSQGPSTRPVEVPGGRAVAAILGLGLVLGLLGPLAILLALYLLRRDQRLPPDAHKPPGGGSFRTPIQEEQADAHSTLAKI

4-1BB-rFc融合蛋白 = biological target: T2, 4-1BB-rFc融合蛋白 (UniProt Q07011 24-186); assay: ELISA, fusion protein coated on the plate
T2 construct: extracellular domain; also called 4-1BB融合蛋白; not shown: rFc part

4-1BB-His融合蛋白 = biological target: T3, 4-1BB-His融合蛋白 (UniProt Q07011 24-186); assay: ELISA, fusion protein coated on the plate
T3 construct: extracellular domain; also called 4-1BB融合蛋白; not shown: His tag

- NF-κB luciferase reporter (RLU) in 19B3 cells expressing OX40; 半数有效浓度(EC50) [1]: 0.803 µg/mL
- binding result (4-1BB-rFc融合蛋白): no binding
- binding result (4-1BB-His融合蛋白): no binding
B1: 本发明抗OX40抗体 (murine monoclonal anti-OX40 antibody of the invention) (antibody, V domains shown)
VH: EVQLQQSGAELVKPGASVKLSCKASGYTFTNYWIHWVKQRPGQGLEWIGEINPSNGRTNSNEKFKNKATLTVDKSSSTAYMQLSSLTSEDSAVYYCAEAVPYYFVYWGQGTTLTVSS
VL: DIVMTQAASSLSASLGDRVTISCRASQDINNYLNWYQQKPDGTVKLLIYFTSGLRSGVPSRFSGSGSGTDYSLTISNLEQEDIATYFCQQGNTLPLTFGAGTKLELN
notes: also called 本发明OX40抗体; 靶向OX40的抗体
